Measurements from US8080531B2, “Methods for modulating checkpoint activation through TopBP1” (California Institute of Technology, priority 2006, dated 2011).

What was measured:
Xatr-Xatrip [1] = experiment: Kinase assay of Xatr-Xatrip complexes isolated from Xenopus egg extracts; format: biochemical; settings: for activation of Xatr kinase activity toward PHAS-I: isolated Xatr-Xatrip complexes, 32P-ATP, result in words
Excerpt: (§1) Specifically, Applicants first isolated Xatr from egg extracts by pull-downs with FLAG-tagged Xenopus ATRIP (Xatrip). For these experiments, Applicants used both full-length Xatrip and an N-terminal truncation mutant (ΔN222) that supports normal Xatr-dependent activation of Xchk1 in egg extracts (Kumagai et al., 2004; Kim et al., 2005).
(§2) Applicants eluted the beads with FLAG peptide and mixed the eluates with a His6-tagged version of XtopBP1 that had been purified from baculovirus-infected insect cells (FIG. 1B). Finally, Applicants added ^32P-ATP and PHAS-I, a commonly used model substrate for ATR (Abraham, 2001).
Xatrip-FLAG and XatripΔN222-FLAG (20 ng/μl each) were incubated in interphase extracts containing anti-FLAG M2 antibody beads (Sigma) for 60 min at room temperature. The beads were isolated and washed twice with buffer A (10 mM HEPES-KOH (pH 7.5), 150 mM NaCl, 0.1% CHAPS, and 2.5 mM EGTA) and twice with HEPES-buffered saline (HBS; 10 mM HEPES-KOH (pH 7.5) and 150 mM NaCl). Xatr-Xatrip complexes were eluted in one-tenth the volume of the egg extract in HBS containing 0.1 mg/ml 3×-FLAG peptide (Sigma) for 60 min at 4° C. Eluates (2 μl) were used for kinase assays as described below.
(§3) Samples were incubated in 20 μl kinase buffer (50 mM Tris-HCl (pH 7.5), 10 mM MgCl2, 1 mM dithiothreitol, 100 μM nonradioactive ATP, and 100 μCi/ml [γ-^32P]ATP) containing 12.5 μg/ml PHAS-I or 50 μg/ml GST-Xmcm2 (62-122) for 30 min at room temperature. GST-XtopBP1 (972-1279) was added at a final concentration of 100 μg/ml unless indicated otherwise. In some cases, GST-Xmcm2 (62-122), GST-Xchk1 (306-352), or full-length Xchk1-Myc-His6 were used as substrates with only […] nonradioactive ATP. Reactions were terminated by boiling in gel sample buffer.

Xchk1 [2] = experiment: Checkpoint-dependent phosphorylation of Xchk1 in XtopBP1-depleted egg extracts with aphidicolin and sperm nuclei; format: biochemical, Xenopus; settings: added back to XtopBP1-depleted extract, aphidicolin
Excerpt: Applicants proceeded to remove endogenous XtopBP1 from egg extracts by immunodepletion with anti-XtopBP1 antibodies (FIG. 7C). In parallel, Applicants used control antibodies to prepare mock-depleted extract. Next, Applicants added back wild-type His6-XtopBP1 or the His6-XtopBP1-W1138R mutant to aliquots of the XtopBP1-depleted extract. Finally, Applicants added aphidicolin and demembranated Xenopus sperm nuclei to the various extracts in order to create stalled replication forks and then examined phosphorylation of Xchk1 (FIG. 7D).
(§4) Extracts from Xenopus eggs were prepared as described (Kumagai and Dunphy, 2000). A DNA replication checkpoint response was induced by addition of 50 μg/ml aphidicolin into extracts containing demembranated sperm nuclei (3000 per μl) (Kumagai and Dunphy, 2000). To monitor DNA replication, extracts containing 1000 sperm nuclei/μl were incubated with [α-^32P]dATP (Yoo et al., 2004).
Xatr and Xatrip were immunodepleted as described (Kumagai et al., 2004). For immunodepletion of XtopBP1, we incubated 100 μl egg extract twice for 60 min with 10 μl Affiprep protein A beads (BioRad) containing 35 μg anti-XtopBP1 antibodies.

[3] = system: chromosomal DNA replication; experiment: Chromosomal DNA replication in XtopBP1-depleted egg extracts; format: biochemical, Xenopus; settings: XtopBP1-depleted extracts with protein added back
Description: In conjunction with these experiments, Applicants also examined chromosomal DNA replication in extracts containing either wild-type or W1138R His6-XtopBP1. […] Therefore, the defect in phosphorylation of Xchk1 in the extracts containing this mutant is not due to a failure in the assembly of DNA replication forks.
as §4

Xatr-Xatrip [4] = target: T1, Xatr-Xatrip (Xenopus laevis, UniProt Q9DE14); experiment: Kinase assay of Xatr-Xatrip complexes isolated from Xenopus egg extracts; format: biochemical; parameters: increase of kinase activity of Xatr; other: Xatr immunoprecipitated from Xatrip-depleted extracts; settings: Xatr immunoprecipitated from Xatrip-depleted extracts
Excerpt: as §1, §2
Xatrip-FLAG and XatripΔN222-FLAG (20 ng/μl each) were incubated in interphase extracts containing anti-FLAG M2 antibody beads (Sigma) for 60 min at room temperature. The beads were isolated and washed twice with buffer A (10 mM HEPES-KOH (pH 7.5), 150 mM NaCl, 0.1% CHAPS, and 2.5 mM EGTA) and twice with HEPES-buffered saline (HBS; 10 mM HEPES-KOH (pH 7.5) and 150 mM NaCl). Xatr-Xatrip complexes were eluted in one-tenth the volume of the egg extract in HBS containing 0.1 mg/ml 3×-FLAG peptide (Sigma) for 60 min at 4° C. Eluates (2 μl) were used for kinase assays as described below. […]

Xatm = experiment: Kinase assay of immunoprecipitated Xatm toward PHAS-I; format: biochemical, Xenopus; settings: Xatm immunoprecipitated from egg extracts
Description: Applicants have also shown that TopBP1 is a specific activator of ATR and not a general activator of the PIKK family. Specifically, Applicants immunoprecipitated both Xatr and Xatm in parallel from Xenopus egg extracts and then incubated the immunoprecipitates with GST-XtopBP1 (972-1279) (FIG. 3F).
as §3

Xatr-Xatrip [5] = experiment: Glutathione bead pull-down of Xatr and Xatrip from egg extracts; format: binding, Xenopus
Description: (§5) Specifically, Applicants incubated glutathione beads containing GST-XtopBP1 (972-1279) in egg extracts, reisolated the beads, and performed immunoblotting for both Xatr and Xatrip. […] In addition, in other experiments, there was no binding of Xatr or Xatrip to beads containing GST fusions of the 1-348, 333-646, or 623-984 segments from XtopBP1 (data not shown).
(§6) Applicants also tested to see if the association of XtopBP1 with Xatr depends upon Xatrip. For this experiment, Applicants removed endogenous Xatrip from egg extracts by immunodepletion with anti-Xatrip antibodies. As described previously, this procedure leaves behind approximately 30% of the endogenous Xatr, the fraction that is not in a complex with Xatrip (Kumagai et al., 2004). Next, Applicants added GST-XtopBP1 (972-1279) to the Xatrip-depleted extracts and to mock-depleted extracts that had been prepared in parallel.

human ATR [6] = target: T2, human ATR (Homo sapiens, UniProt Q13535); experiment: Kinase assay of recombinant human FLAG-ATR against S92 of GST-Xmcm2 (62-122); format: biochemical; settings: wild-type human FLAG-ATR from U2OS nuclear extracts
T2 construct: expressed in transfected cells; host or cells: U2OS GW33 cells (doxycycline-inducible), nuclear extract, anti-FLAG purification
Description: (§7) Specifically, Applicants isolated wild-type and kinase-deficient versions of FLAG-tagged human ATR from nuclear extracts of U2OS cells that conditionally express these proteins (FIG. 5C). The recombinant ATR proteins were purified with anti-FLAG magnetic beads under conditions that preserve the binding of endogenous ATRIP (Ünsal-Kacmaz and Sancar, 2004). Next, Applicants incubated both the wild-type and kinase-deficient FLAG-ATR preparations in the absence or presence of GST-XtopBP1 (972-1279), and measured kinase activity against S92 of the GST-Xmcm2 (62-122) peptide.
as §3
(§8) U2OS cells conditionally expressing wild-type (GW33) or kinase-deficient (GK41) human FLAG-ATR were cultured as described (Nghiem et al., 2001). Cells were induced with 1 μg/ml doxycycline for 48 hr. Nuclear extracts were prepared as described (Dignam et al., 1983) except that nuclei were lysed by brief sonication and the concentration of NaCl in the nuclear isolation buffer was reduced to 350 mM in order to preserve the binding of endogenous ATRIP to recombinant ATR. FLAG-ATR proteins were isolated by an overnight incubation with anti-FLAG antibodies bound to protein G-magnetic beads (Dynal) and eluted with 3×-FLAG peptide.

human ATR [7] = experiment: as above; format: biochemical
Description: as §7, §3, §8

Xchk1 [8] = experiment: Ectopic phosphorylation of 35S-Xchk1 in Xenopus egg extracts without checkpoint-inducing DNA; format: biochemical; settings: 35S-Xchk1, tautomycin, no checkpoint-inducing DNA template
Description: Because the GST-XtopBP1 (972-1279) fragment could activate Xatr in vitro without the inclusion of DNA, Applicants reasoned that ectopic addition of this fragment to Xenopus egg extracts might also be able to trigger the Xatr-dependent phosphorylation of Xchk1 even in the absence of a checkpoint-inducing DNA template.
as §4

Xatr-Xatrip [9] = target: T1, Xatr-Xatrip; experiment: Glutathione bead pull-down of Xatr and Xatrip from egg extracts; format: binding; parameters: incubated glutathione beads containing GST-XtopBP1 (972-1279) in egg extracts, reisolated the beads, and performed immunoblotting for both Xatr and Xatrip; Applicants removed endogenous Xatrip from egg extracts by immunodepletion with anti-Xatrip antibodies; from tissue; host or cells: Xenopus egg extract; settings: Xatrip-depleted extracts
Description: as §5, §6

T1 sequence (Q9DE14 whole entry, the tested form may be a part): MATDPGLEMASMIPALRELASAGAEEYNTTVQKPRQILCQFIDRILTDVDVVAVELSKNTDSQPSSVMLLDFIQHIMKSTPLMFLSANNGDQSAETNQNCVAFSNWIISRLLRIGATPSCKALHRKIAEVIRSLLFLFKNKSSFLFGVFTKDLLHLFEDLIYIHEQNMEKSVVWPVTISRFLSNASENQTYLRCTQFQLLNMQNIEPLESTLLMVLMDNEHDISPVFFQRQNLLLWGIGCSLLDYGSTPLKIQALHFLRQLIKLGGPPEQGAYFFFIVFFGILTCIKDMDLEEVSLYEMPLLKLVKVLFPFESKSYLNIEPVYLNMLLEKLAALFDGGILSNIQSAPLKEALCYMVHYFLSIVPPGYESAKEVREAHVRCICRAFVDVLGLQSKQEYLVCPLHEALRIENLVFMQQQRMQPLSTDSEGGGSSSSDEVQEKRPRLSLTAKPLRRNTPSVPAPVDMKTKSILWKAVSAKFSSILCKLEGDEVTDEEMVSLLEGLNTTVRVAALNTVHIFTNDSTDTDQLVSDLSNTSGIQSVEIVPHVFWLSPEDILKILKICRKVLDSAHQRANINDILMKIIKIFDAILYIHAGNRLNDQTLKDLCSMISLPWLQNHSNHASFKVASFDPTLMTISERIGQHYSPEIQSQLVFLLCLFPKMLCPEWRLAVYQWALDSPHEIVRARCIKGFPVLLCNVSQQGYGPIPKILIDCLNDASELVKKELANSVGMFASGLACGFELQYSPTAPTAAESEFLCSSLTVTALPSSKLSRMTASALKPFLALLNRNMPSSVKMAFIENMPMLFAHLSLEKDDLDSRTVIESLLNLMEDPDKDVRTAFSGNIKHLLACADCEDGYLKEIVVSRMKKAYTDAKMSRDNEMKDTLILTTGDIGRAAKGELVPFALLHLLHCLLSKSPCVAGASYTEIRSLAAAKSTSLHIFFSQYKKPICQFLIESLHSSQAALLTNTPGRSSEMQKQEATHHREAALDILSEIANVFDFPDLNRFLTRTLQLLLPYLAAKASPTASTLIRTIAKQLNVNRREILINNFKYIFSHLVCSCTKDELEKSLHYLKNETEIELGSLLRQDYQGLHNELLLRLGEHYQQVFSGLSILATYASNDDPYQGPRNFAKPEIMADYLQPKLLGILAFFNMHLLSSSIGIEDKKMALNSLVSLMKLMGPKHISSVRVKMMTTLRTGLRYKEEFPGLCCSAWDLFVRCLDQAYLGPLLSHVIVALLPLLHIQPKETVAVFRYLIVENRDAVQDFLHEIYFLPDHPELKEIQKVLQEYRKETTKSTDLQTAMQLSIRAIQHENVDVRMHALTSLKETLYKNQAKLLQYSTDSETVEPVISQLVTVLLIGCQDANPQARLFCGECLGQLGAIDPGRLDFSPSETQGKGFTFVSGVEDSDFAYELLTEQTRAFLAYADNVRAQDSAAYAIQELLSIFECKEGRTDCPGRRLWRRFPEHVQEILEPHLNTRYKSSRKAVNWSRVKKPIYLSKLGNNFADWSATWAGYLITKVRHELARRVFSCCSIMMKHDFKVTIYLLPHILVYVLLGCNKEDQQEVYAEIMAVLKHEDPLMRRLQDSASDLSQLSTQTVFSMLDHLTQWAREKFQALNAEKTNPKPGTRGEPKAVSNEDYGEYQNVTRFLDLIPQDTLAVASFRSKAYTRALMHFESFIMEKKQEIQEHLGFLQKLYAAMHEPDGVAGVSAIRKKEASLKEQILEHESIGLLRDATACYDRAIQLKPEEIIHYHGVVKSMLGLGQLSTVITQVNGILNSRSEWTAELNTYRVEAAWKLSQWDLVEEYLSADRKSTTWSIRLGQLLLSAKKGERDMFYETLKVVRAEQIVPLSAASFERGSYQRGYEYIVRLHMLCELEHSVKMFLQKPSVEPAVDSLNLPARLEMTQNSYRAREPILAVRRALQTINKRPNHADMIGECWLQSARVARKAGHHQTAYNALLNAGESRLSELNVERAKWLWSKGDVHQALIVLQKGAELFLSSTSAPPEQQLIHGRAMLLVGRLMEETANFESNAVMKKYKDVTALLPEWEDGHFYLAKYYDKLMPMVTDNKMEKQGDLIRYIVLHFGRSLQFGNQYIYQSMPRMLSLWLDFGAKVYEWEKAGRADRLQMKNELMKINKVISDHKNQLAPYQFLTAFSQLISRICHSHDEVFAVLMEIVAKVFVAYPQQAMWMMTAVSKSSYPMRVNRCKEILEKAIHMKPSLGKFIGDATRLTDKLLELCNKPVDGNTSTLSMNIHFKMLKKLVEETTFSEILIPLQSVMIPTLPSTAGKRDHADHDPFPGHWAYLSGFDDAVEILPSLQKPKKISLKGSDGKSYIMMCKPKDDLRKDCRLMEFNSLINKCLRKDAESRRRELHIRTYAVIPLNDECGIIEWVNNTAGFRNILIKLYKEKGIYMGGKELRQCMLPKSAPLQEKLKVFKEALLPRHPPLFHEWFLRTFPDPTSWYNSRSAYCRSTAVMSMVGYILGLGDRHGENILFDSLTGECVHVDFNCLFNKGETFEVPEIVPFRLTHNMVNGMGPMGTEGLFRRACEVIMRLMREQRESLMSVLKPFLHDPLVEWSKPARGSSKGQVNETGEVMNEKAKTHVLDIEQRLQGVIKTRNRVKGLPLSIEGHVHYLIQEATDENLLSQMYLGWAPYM
T1 sequence (Q9DE14 whole entry): as the sequence (Q9DE14 whole entry, the tested form may be a part) above

| Molecule | activation of Xatr kinase activity toward PHAS-I (Xatr-Xatrip [1]) | rescue of phosphorylation of Xchk1 (Xchk1 [2]) | chromosomal DNA replication [3] | half-maximal induction of kinase activity (Xatr-Xatrip [1]; Xatr-XatripΔN222, PHAS-I substrate, dose-response 0.5-30 μg/ml XtopBP1) [µg/mL] | induced kinase activity toward PHAS-I (Xatr-Xatrip [1]; XatripΔN222-FLAG preparation from Xatr-depleted extracts) | induced kinase activity toward PHAS-I (Xatr-Xatrip [1]; XatripΔN222-FLAG preparation from mock-depleted extracts) | kinase activity toward PHAS-I of the preparation alone (Xatr-Xatrip [1]; recombinant XtopBP1 without Xatr-Xatrip) | increase of kinase activity of Xatr (Xatr-Xatrip [4]) | activation of immunoprecipitated Xatr (Xatr-Xatrip [1]; Xatr immunoprecipitated from egg extracts, PHAS-I) | Xatr-dependent phosphorylation of GST-Xmcm2 (62-122) peptide (Xatr-Xatrip [1]; substrate GST-Xmcm2 (62-122), S92) | phosphorylation of GST-Xchk1 (306-352) peptide and full-length Xchk1-Myc-His6 on S344 (Xatr-Xatrip [1]; substrates GST-Xchk1 (306-352) and Xchk1-Myc-His6) | activation of Xatm (Xatm) | binding of Xatr to the XtopBP1 fragment (Xatr-Xatrip [5]; Xatrip-depleted extracts plus recombinant XatripΔN222-FLAG) | binding of Xatr and Xatrip to glutathione beads (Xatr-Xatrip [5]; egg extracts, immunoblotting) | binding of Xatr to the XtopBP1 fragment (Xatr-Xatrip [5]; mock-depleted extracts) | kinase activity of wild-type FLAG-ATR (human ATR [6]) | kinase activity in mock preparation of magnetic beads (human ATR [7]; beads lacking anti-FLAG antibodies) | activity of kinase-deficient FLAG-ATR (human ATR [7]; kinase-deficient human FLAG-ATR) | phosphorylation of Xchk1 in egg extracts (Xchk1 [8]) | binding of Xatr to the XtopBP1 fragment (Xatr-Xatrip [9]) |
| --- | --- | --- | --- | --- | --- | --- | --- | --- | --- | --- | --- | --- | --- | --- | --- | --- | --- | --- | --- | --- |
| His6-XtopBP1-W1138R: version of full-length His6-XtopBP1 with the W1138R mutation | unable to activate Xatr | could not restore the phosphorylation of Xchk1 | not inhibited |  |  |  |  |  |  |  |  |  |  |  |  |  |  |  |  |  |
| XtopBP1: His6-tagged full-length Xenopus TopBP1 purified from baculovirus-infected insect cells | very large increase | rescue the phosphorylation of Xchk1 fully |  | 10 to 15 | could not elicit any kinase activity | induced strong kinase activity | negligible kinase activity | could not significantly increase |  |  |  |  |  |  |  |  |  |  |  |  |
| GST-XtopBP1 (972-1279): GST fusion protein containing conserved region between BRCT domains VI and VII (residues 972-1279) of XtopBP1 (protein, left off: a dimerising Fc or GST, GST fusion protein containing conserved region between BRCT domains VI and VII (residues 972-1279) of XtopBP1) EQQKRVPEALYPHTYNPKMSLDISAVQDGSYTASKFSADTSLQQDENSELQLQQNNKFGETSDDQVKKAAGDGNPQNPSKDVKGALTQTLEMRENFQRQLQEFMSATSVVKPRGSVGRAGFDNSPCTPEGARSTRNGRSRVLEALRQSRQAMTDLNTEPSQNEQIIWDDPTAREERAKLVSNLQWPDSPSQYSEQLQHNMNDAGGNYTPAKESLTDSEIAELEACEFEPKSAMRTPVIENNLQSPTKPDHLTPTPQAPSIAFPLANPPVAPQPREKPVQPFSKEETLKERRFQLSSLDPQERIDYSQL | induced activation of Xatr as effectively as full-length XtopBP1 |  |  |  |  |  |  |  | strong activation | induced a strong Xatr-dependent phosphorylation | readily induced phosphorylation | no activation of Xatm | restore the binding | could clearly detect binding | good binding | large increase | did not induce any kinase activity | neither the intact nor W1138R mutant form of GST-XtopBP1 (972-1279) had any effect | very robust phosphorylation | no binding |
